# Literature values, collected in publication PMC4059559.
# Experiments:
# His131 = His131 (UniProt position 131, WGVCTHLGCVP); assay: other
# His152 = His152 (UniProt position 152, WFCPCHGSHYD); assay: other
# [1] = oxidised ISP (ISPox), isolated protein
substance,measurement,setting,value
"Rieske iron-sulfur protein (ISP) of the cytochrome bc1 complex, isolated (Rhodobacter sphaeroides)",pKa,His131; [1],~9.6
same,pKa,His131; reduced ISP (ISPH),~12–13
same,pKa,His152; [1],~7.6
same,pKa,His152; reduced ISP (ISPH),~12–13
